In doi:10.1101/638320, “Analyzing the weak dimerization of a cellulose binding module by sedimentation velocity experiments” (bioRxiv, 2019):

Legend:
[1] = target: the molecule itself; assay: AUC; sedimentation velocity, absorbance at 280 nm, 50 000 rpm, 20 °C, PBS (137 mM NaCl, 2.7 mM KCl, 10 mM Na2HPO4, 1.8 mM KH2PO4, pH 7.35), 0.05 to 0.7 g/L; UltraScan III (2DSA, GA, GAMC, van Holde-Weischet; KD by discrete model genetic algorithm); dimer to monomers
[2] = target: the molecule itself; assay: AUC; loading concentration 0.70 mg/mL (37.90 uM)
[3] = target: the molecule itself; assay: AUC; loading concentration 0.50 mg/mL (27.07 uM)

B1: CBM_(CipA), cellulose binding module of the cellulosome anchoring protein CipA (domain or fragment, Clostridium thermocellum)
chain: MGNLKVEFYNSNPSDTTNSINPQFKVTNTGSSAIDLSKLTLRYYYTVDGQKDQTFWCDHAAIIGSNGSYNGITSNVKGTFVKMSSSTNNADTYLEISFTGGTLEPGAHVQIQGRFAKNDWSNYTQSNDYSFKSASQFVEWDQVTAYLNGVLVWGKEPLE
notes: abstract: Clostridium thermocellum, introduction: Cellulomonas fimi; differs from PDB 1NBC by the polyHis tag and two amino acids at the beginning and the end; Calculated monomer mass 18469 Da; Gene codon optimised for E. coli, in a modified pET28a(+); also called CMB_(CipA); source: E. coli BL21 (DE3), purified (heating to 70 °C, IMAC on HisTrap, desalting); not shown: His6, C-terminal, kept
In the case of B1, the Kd [1] is reported as about 87 µM, the “stoichiometry N” value [1] is reported as 2 and the Kd [2] is reported as 80.5 µM. For the same protein, the Kd [3] was 93.9 µM.
